Test results as given in patent publication US20020143164A1, “Ras activator nucleic acid molecules, polypeptides and methods of use” (priority 1999, published 2002).
Values belong to the molecule of their own block, whether it stands above or below them.

Key:
[1] = system: Ras; assay: In vitro GEF assay (32P-α-GTP binding to Ras); format: biochemical; conditions: immunoprecipitated Flag-tagged protein, 100 ng Ras, 30 min
Protocol: Full length (GRF4) or CDC25-deleted (ΔCDC25) GRF4, or GRF2, each Flag-tagged, were immunoprecipitated from transfected Hek-293T cells using anti Flag antibodies. Equal amounts of immunoprecipitates were washed with GEF lysis buffer, equilibrated with GEF assay buffer and incubated with 32P-α-GTP (diluted in cold GTP) plus 100 ng of Ras for 30 min. Bound and unbound radiolabelled GTP were then separated by filtration, and the amount of bound GTP determined by scintillation counting, as detailed in the Method section. Fold Ras activation was compared to the activation of Ras in the absence of GRFs (which was set to 1).
GRF4 has a RasGRF(GEF) activity/function. To show its GEF activity, we performed in-vitro GEF assays. Briefly, GST-Ras was added alone (tubes 1 and 2) or along with GST-CDC25, or immunoprecipitated full-length of GRF4 (tubes 3 and 4). All tubes contained assay mixture including cold GTP and P32 alpha GTP. The exchange reactions were stopped at the indicated times. The stopped reaction mixtures were passed through nitrocellulose filters which were then washed with stop buffer to separate bound and unbound nucleotides. Filters were dried and then quantified by scintillation counting to determine bound CPM. The labeled nucleotides trapped on the washed filters were assumed to be Ras-associated. The difference in bound CPM over 30 minute period was determined for reactions where GST-Ras was added alone (it is the difference in bound CPM between tubes 1 and 2) and where GST-Ras was added with a GEF (it is the difference in bound CPM between tubes 3 and 4).

[2] = system: Ras; conditions: reference 23; cited from earlier work
[3] = system: Ras; assay: Ras activation assay in living cells, GRF4 and deletion mutants expressed in HEK-293T cells; format: cell-based, human; conditions: HEK-293T cells treated with 8-Br-cAMP
Protocol: HEK-293T cells were transfected with vector alone, GRF4 (WT), GRF4 lacking its cNMP-BD (ΔcNMP-BD) or its CDC25 domain (ΔCDC25), and then treated (or not) with 8-Br-cAMP. Cell lysates were then incubated with GST-Raf1-RBD to precipitate active Ras, and immunobloited with anti Ras antibodies as above (upper panel). Lower panels are controls for total endogenous Ras and transfected GRF4 or its mutants.
Flag, HA or myc tags was added to the N-terminus of full length GRF4 using PCR, and subcloned into the mammalian expression vector pCMV5 (Invitrogen). Mutants GRF4 with deletion of the CDC25 domain (residue 711-1007, GRF4DCDC25 or DCDC25 for short), the cNMP-BD (residue 134-254, DcNMP-BD), the PLPF motif in the PDZ domain (residue 396-399, -PLPF), or bearing mutations in the PDZ-binding motif (SAV to AAA), were generated using PCR. The GST-GRF4-cNMP-BD (residue 101-303) and GST-Carboxy-terminus (residue 1348-1499) were PCR-generated and cloned into pGEX-2T ( Pharmacia). The latter construct was used to generate a fusion protein (GST-GRF4C terminus) which was used to immunize rabbits for the generation of polyclonal anti GRF4 antibodies.
HEK-293T cells were transfected as above, serum starved overnight and then subjected to various treatments, as described in the text. […] GTP in the lysates was determined using activation specific probes as described. Briefly, to determined the levels of active Ras (Ras-GTP) in cell, sepharose-bound GST fusion protein of the Ras-binding domain (RBD) of Raf-1 (GST-Raf1-RBD; Upstate Biotechnology Inc.) was used to precipitate Ras-GTP from cell lysates, and the amount of Ras-GTP determined by immunoblotting with anti Ras antibodies (Quality Biotech). Similarly, to determine the level of Rap1-GTP in cell lysates, sepharose-bound GST fusion proteins of the Rap1-binding domain of RaIGDS (GST-RaIGDS-RBD) were used to precipitate Rap1-GTP, which was then detected on a Western blot using anti-Rap1 antibodies (Transduction Lab).

[4] = biological target: T1, GRF4 (Homo sapiens, UniProt Q9Y4G8, DEL134-254); assay: Activation of Ras and MAPK by cNMP analogues in GRF4-transfected HEK-293T cells; format: cell-based; conditions: HEK-293T cells
T1 construct: Flag, HA or myc tags was added to the N-terminus of full length GRF4 using PCR; expressed in transfected cells; host or cells: HEK-293T
T1 sequence (Q9Y4G8 with tags, fused parts or gaps DEL134-254): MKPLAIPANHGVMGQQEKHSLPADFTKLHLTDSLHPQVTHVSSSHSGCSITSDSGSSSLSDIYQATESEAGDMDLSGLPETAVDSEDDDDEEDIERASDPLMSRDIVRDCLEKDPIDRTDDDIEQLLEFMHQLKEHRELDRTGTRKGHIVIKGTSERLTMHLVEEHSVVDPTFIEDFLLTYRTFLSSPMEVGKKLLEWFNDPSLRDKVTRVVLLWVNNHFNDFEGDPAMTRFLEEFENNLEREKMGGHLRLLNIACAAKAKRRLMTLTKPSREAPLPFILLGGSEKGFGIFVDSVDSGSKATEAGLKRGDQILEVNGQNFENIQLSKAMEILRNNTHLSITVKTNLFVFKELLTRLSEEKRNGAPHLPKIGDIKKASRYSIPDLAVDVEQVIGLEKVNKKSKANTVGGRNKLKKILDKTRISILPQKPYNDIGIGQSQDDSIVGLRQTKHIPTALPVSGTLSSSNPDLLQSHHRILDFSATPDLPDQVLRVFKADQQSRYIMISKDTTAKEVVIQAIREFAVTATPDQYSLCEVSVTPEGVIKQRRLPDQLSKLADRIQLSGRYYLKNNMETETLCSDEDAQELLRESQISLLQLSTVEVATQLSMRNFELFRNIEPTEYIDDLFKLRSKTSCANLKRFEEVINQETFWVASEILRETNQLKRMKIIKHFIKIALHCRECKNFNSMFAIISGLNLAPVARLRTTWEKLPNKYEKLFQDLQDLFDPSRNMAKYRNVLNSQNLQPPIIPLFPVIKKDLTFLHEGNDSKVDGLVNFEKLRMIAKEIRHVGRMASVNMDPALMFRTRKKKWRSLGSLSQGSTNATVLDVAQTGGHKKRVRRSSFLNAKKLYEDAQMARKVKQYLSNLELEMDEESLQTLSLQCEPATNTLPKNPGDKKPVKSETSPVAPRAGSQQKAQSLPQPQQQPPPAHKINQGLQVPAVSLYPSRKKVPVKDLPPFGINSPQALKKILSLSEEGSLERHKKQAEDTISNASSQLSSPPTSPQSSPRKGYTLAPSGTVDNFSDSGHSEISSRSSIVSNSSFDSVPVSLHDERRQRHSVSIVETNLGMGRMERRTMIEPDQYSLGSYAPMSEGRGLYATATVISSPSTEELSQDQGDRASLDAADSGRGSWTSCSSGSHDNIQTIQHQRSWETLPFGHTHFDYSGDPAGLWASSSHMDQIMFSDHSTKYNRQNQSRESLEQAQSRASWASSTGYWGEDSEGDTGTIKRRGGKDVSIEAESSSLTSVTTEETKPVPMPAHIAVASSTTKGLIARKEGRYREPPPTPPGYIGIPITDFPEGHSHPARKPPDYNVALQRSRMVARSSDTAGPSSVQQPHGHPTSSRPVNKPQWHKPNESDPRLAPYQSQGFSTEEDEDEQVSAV
Protocol: The small GTPase Ras controls the MAPK pathway and exerts its effects on cellular processes primarily through this pathway. MAPK is a downstream kinase of Ras and thus, Ras activation leads to MAPK activation (FIG. 6A). Therefore, we show the GRF4 effects on MAPK activation using assays in which levels of active MAPK in cells is determined using antibodies recognizing phosphorylated (active) MAPK.

Fold Ras activation in vitro (activation without GRFs set to 1) [1]: 4.5 fold
B1: GRF2: Flag-tagged full-length RasGRF2, positive control GEF for Ras (protein, UniProt O14827 1-1237, looked up)
chain: MQKSVRYNEGHALYLAFLARKEGTKRGFLSKKTAEASRWHEKWFALYQNVLFYFEGEQSCRPAGMYLLEGCSCERTPAPPRAGAGQGGVRDALDKQYYFTVLFGHEGQKPLELRCEEEQDGKEWMEAIHQASYADILIEREVLMQKYIHLVQIVETEKIAANQLRHQLEDQDTEIERLKSEIIALNKTKERMRPYQSNQEDEDPDIKKIKKVQSFMRGWLCRRKWKTIVQDYICSPHAESMRKRNQIVFTMVEAESEYVHQLYILVNGFLRPLRMAASSKKPPISHDDVSSIFLNSETIMFLHEIFHQGLKARIANWPTLILADLFDILLPMLNIYQEFVRNHQYSLQVLANCKQNRDFDKLLKQYEANPACEGRMLETFLTYPMFQIPRYIITLHELLAHTPHEHVERKSLEFAKSKLEELSRVMHDEVSDTENIRKNLAIERMIVEGCDILLDTSQTFIRQGSLIQVPSVERGKLSKVRLGSLSLKKEGERQCFLFTKHFLICTRSSGGKLHLLKTGGVLSLIDCTLIEEPDASDDDSKGSGQVFGHLDFKIVVEPPDAAAFTVVLLAPSRQEKAAWMSDISQCVDNIRCNGLMTIVFEENSKVTVPHMIKSDARLHKDDTDICFSKTLNSCKVPQIRYASVERLLERLTDLRFLSIDFLNTFLHTYRIFTTAAVVLGKLSDIYKRPFTSIPVRSLELFFATSQNNRGEHLVDGKSPRLCRKFSSPPPLAVSRTSSPVRARKLSLTSPLNSKIGALDLTTSSSPTTTTQSPAASPPPHTGQIPLDLSRGLSSPEQSPGTVEENVDNPRVDLCNKLKRSIQKAVLESAPADRAGVESSPAADTTELSPCRSPSTPRHLRYRQPGGQTADNAHCSVSPASAFAIATAAAGHGSPPGFNNTERTCDKEFIIRRTATNRVLNVLRHWVSKHAQDFELNNELKMNVLNLLEEVLRDPDLLPQERKAAANILRALSQDDQDDIHLKLEDIIQMTDCMKAECFESLSAMELAEQITLLDHVIFRSIPYEEFLGQGWMKLDKNERTPYIMKTSQHFNDMSNLVASQIMNYADVSSRANAIEKWVAVADICRCLHNYNGVLEITSALNRSAIYRLKKTWAKVSKQTKALMDKLQKTVSSEGRFKNLRETLKNCNPPAVPYLGMYLTDLAFIEEGTPNFTEEGLVNFSKMRMISHIIREIRQFQQTSYRIDHQPKVAQYLLDKDLIIDEDTLYELSLKIEPRLPA
modifications: full-length Flag tag
notes: Flag-tagged full-length RasGRF2, positive control GEF for Ras
Binding to nucleotide-bound forms of Ras, similar experiments [2]: bind only to EDTA-treated Ras

Activation of Ras and MAPK by the expressed mutant [4]: constitutively
B2: ΔcNMP-BD: Mutant GRF4 with deletion of the cNMP-BD (residue 134-254) (protein)
chain: T1 sequence (Q9Y4G8 with tags, fused parts or gaps DEL134-254)
8-Br-cAMP-mediated activation of Ras via the construct, compared with wt-GRF4 [3]: almost abolished
